How the values were obtained:
[1] = molecular target: the molecule itself; test: AUC + other: dynamic light scattering; sedimentation velocity at 48 °C, αB-Cr 0.2 mg/mL, 0.03 M Hepes pH 6.8, ionic strength 0.15 M, with 300 mM betaine; mass by the Svedberg equation with s from AUC and D from DLS; major peak 16.5 S
[2] = molecular target: the molecule itself; test: AUC + other: dynamic light scattering; sedimentation velocity at 48 °C, αB-Cr 0.2 mg/mL, 0.03 M Hepes pH 6.8, ionic strength 0.15 M, no additive; mass by the Svedberg equation with s from AUC and D from DLS; major peak 20.4 S
[3] = molecular target: the molecule itself; test: AUC; sedimentation velocity at 48 °C, Phb 0.4 mg/mL alone (also with 500 mM betaine), 0.03 M Hepes pH 6.8, ionic strength 0.15 M, 48,000 rpm

B1: αB-crystallin (natural protein, human, UniProt P02511 1-175, looked up)
chain: MDIAIHHPWIRRPFFPFHSPSRLFDQFFGEHLLESDLFPTSTSLSPFYLRPPSFLRAPSWFDTGLSEMRLEKDRFSVNLDVKHFSPEELKVKVLGDVIEVHGKHEERQDEHGFISREFHRKYRIPADVDPLTITSSLSSDGVLTVNGPRKQVSGPERTIPITREEKPAVTAAPKK
notes: αB-crystallin (HspB5), human; Polydisperse oligomer (about 40-mer at 48 °C without additives, about 24-mer with 300 mM betaine); also called HspB5; source: E. coli (pET23 vector), purified (salting out with ammonium sulfate, gel filtration)
stoichiometry N [1]: ~24 | stoichiometry N [2]: 40

B2: glycogen phosphorylase b (enzyme, rabbit, UniProt P00489 1-843, looked up)
chain: MSRPLSDQEKRKQISVRGLAGVENVTELKKNFNRHLHFTLVKDRNVATPRDYYFALAHTVRDHLVGRWIRTQQHYYEKDPKRIYYLSLEFYMGRTLQNTMVNLALENACDEATYQLGLDMEELEEIEEDAGLGNGGLGRLAACFLDSMATLGLAAYGYGIRYEFGIFNQKICGGWQMEEADDWLRYGNPWEKARPEFTLPVHFYGRVEHTSQGAKWVDTQVVLAMPYDTPVPGYRNNVVNTMRLWSAKAPNDFNLKDFNVGGYIQAVLDRNLAENISRVLYPNDNFFEGKELRLKQEYFVVAATLQDIIRRFKSSKFGCRDPVRTNFDAFPDKVAIQLNDTHPSLAIPELMRVLVDLERLDWDKAWEVTVKTCAYTNHTVLPEALERWPVHLLETLLPRHLQIIYEINQRFLNRVAAAFPGDVDRLRRMSLVEEGAVKRINMAHLCIAGSHAVNGVARIHSEILKKTIFKDFYELEPHKFQNKTNGITPRRWLVLCNPGLAEIIAERIGEEYISDLDQLRKLLSYVDDEAFIRDVAKVKQENKLKFAAYLEREYKVHINPNSLFDVQVKRIHEYKRQLLNCLHVITLYNRIKKEPNKFVVPRTVMIGGKAAPGYHMAKMIIKLITAIGDVVNHDPVVGDRLRVIFLENYRVSLAEKVIPAADLSEQISTAGTEASGTGNMKFMLNGALTIGTMDGANVEMAEEAGEENFFIFGMRVEDVDRLDQRGYNAQEYYDRIPELRQIIEQLSSGFFSPKQPDLFKDIVNMLMHHDRFKVFADYEEYVKCQERVSALYKNPREWTRMVIRNIATSGKFSSDRTIAQYAREIWGVEPSRQRLPAPDEKIP
notes: glycogen phosphorylase b (muscle form), rabbit skeletal muscle; In all experiments the protein was heated at 48 °C, so it was partly unfolded (unfolded monomer and partly unfolded dimer); also called Phb; source: purified from rabbit skeletal muscle
stoichiometry N [3]: 2
